Data as given in US20140199327A1, “METHODS OF PROMOTING DIFFERENTIATION” (Genentech, Inc., priority 2011, published 2014).

Tests used:
Experiment in all cases: Flag immunoprecipitation of DUBs from 293T cells cotransfected with ID2, MG-132 treated (FIG. 2B)
[1] = molecular target: SENP3-Flag (human SENP3 with C-terminal Flag epitope) (human, UniProt Q9H4L4 1-574, limits assumed)
Protocol: (§1) FIG. 2. […] (A) Western blot (WB) analysis of 293T transfected with Flag-tagged deubiquitinases (DUBs) or an empty vector (−). Where indicated, cells were treated with […] MG-132 for 4 hr. (B) Flag-tagged DUBs were immunoprecipitated (IP) from 293T cells cotransfected with ID2 and treated with […] MG-132 for 6 hr.

[2] = molecular target: T1, SENP5-Flag (human SENP5 with C-terminal Flag epitope) (human, UniProt Q96HI0 1-755, limits assumed)
T1 sequence (looked up): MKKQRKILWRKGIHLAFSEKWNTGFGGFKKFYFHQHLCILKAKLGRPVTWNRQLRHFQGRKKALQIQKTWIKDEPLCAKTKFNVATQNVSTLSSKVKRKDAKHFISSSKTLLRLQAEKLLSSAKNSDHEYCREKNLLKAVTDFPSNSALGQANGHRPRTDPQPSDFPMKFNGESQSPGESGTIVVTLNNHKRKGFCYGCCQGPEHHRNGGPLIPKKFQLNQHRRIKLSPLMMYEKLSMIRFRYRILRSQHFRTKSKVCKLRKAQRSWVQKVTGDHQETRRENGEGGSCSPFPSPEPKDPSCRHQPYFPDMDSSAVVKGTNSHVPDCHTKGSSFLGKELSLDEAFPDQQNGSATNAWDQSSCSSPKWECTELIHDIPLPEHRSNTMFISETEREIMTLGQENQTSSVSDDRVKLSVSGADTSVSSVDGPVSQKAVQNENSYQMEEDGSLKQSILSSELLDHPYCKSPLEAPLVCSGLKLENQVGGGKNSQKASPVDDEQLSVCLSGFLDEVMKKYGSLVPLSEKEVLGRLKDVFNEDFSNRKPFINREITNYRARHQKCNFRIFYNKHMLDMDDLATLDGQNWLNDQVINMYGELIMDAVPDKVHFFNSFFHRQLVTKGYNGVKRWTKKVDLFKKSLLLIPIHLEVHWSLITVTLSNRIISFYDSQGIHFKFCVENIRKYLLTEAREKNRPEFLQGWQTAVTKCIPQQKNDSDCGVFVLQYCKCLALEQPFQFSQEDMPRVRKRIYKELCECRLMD
Protocol: as §1

[3] = molecular target: T2, OTUD5-Flag (human OTUD5 with C-terminal Flag epitope) (human, UniProt Q96G74 1-571, limits assumed)
T2 sequence (looked up): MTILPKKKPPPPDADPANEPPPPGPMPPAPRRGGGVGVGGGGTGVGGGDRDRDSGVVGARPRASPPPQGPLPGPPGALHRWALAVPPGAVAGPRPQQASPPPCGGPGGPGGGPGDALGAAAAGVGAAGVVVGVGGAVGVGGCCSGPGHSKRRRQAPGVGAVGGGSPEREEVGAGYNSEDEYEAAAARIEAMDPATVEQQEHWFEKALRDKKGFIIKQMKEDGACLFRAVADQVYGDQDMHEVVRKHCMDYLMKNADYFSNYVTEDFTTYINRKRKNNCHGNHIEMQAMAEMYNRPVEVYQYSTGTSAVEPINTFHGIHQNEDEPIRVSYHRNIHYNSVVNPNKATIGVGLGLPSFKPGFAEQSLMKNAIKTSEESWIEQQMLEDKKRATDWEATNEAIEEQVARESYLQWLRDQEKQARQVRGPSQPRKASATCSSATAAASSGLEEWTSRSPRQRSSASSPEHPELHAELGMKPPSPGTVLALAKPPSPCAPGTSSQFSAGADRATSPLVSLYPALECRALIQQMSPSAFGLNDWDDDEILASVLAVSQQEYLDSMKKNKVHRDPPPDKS
Protocol: as §1

[4] = molecular target: USP9Y-Flag (human USP9Y with C-terminal Flag epitope) (human, UniProt O00507 1-2555, limits assumed)
Protocol: as §1

[5] = molecular target: T3, USP36-Flag (human USP36 with C-terminal Flag epitope) (human, UniProt Q9P275 1-1123, limits assumed)
T3 sequence (looked up): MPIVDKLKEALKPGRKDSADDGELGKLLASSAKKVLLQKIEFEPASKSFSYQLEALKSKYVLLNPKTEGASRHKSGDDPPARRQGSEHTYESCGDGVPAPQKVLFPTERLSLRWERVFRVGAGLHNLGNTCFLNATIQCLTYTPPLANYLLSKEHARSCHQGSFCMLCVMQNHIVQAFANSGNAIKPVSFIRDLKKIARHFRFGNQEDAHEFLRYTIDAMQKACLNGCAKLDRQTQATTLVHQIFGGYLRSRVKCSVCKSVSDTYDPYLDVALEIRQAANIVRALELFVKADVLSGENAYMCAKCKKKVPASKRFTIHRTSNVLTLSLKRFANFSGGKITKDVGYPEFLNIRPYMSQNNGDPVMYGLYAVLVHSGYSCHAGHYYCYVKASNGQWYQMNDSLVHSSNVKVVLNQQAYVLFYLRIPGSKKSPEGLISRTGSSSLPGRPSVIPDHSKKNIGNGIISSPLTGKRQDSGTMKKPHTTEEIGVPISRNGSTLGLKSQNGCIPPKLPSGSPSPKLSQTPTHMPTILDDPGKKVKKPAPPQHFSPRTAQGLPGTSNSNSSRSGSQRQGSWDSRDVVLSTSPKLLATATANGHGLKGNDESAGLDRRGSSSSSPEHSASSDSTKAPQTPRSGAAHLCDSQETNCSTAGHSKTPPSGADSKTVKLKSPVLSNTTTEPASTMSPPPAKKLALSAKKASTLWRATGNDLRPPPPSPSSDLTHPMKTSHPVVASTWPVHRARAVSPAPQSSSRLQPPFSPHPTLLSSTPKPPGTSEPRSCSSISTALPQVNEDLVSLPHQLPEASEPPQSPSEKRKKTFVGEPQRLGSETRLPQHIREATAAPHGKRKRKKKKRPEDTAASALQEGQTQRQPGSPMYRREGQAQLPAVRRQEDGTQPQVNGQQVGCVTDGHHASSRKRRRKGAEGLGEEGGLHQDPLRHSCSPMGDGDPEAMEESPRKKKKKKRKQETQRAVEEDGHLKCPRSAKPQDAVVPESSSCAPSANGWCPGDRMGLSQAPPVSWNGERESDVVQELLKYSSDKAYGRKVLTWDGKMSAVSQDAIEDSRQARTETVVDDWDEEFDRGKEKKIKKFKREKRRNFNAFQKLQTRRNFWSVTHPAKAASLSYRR
Protocol: as §1

Measured: binding result

SENP3-Flag (human SENP3 with C-terminal Flag epitope), sequence (Q9H4L4 whole entry): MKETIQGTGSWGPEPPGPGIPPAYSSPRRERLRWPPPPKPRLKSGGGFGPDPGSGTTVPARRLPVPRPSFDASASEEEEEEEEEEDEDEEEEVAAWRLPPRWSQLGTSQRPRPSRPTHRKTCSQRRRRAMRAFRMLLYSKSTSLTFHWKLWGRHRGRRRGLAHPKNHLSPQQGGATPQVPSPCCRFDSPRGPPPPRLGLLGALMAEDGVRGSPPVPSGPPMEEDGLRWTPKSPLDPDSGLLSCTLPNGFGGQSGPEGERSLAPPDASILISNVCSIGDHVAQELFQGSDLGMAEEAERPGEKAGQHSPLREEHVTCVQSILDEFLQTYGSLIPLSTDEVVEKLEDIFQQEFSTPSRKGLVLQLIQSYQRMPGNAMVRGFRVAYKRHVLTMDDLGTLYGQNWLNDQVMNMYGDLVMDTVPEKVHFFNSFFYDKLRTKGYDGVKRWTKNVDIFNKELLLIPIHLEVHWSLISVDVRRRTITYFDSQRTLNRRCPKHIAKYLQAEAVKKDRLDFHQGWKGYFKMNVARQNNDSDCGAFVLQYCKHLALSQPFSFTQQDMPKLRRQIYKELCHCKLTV
USP9Y-Flag (human USP9Y with C-terminal Flag epitope), sequence (O00507 whole entry): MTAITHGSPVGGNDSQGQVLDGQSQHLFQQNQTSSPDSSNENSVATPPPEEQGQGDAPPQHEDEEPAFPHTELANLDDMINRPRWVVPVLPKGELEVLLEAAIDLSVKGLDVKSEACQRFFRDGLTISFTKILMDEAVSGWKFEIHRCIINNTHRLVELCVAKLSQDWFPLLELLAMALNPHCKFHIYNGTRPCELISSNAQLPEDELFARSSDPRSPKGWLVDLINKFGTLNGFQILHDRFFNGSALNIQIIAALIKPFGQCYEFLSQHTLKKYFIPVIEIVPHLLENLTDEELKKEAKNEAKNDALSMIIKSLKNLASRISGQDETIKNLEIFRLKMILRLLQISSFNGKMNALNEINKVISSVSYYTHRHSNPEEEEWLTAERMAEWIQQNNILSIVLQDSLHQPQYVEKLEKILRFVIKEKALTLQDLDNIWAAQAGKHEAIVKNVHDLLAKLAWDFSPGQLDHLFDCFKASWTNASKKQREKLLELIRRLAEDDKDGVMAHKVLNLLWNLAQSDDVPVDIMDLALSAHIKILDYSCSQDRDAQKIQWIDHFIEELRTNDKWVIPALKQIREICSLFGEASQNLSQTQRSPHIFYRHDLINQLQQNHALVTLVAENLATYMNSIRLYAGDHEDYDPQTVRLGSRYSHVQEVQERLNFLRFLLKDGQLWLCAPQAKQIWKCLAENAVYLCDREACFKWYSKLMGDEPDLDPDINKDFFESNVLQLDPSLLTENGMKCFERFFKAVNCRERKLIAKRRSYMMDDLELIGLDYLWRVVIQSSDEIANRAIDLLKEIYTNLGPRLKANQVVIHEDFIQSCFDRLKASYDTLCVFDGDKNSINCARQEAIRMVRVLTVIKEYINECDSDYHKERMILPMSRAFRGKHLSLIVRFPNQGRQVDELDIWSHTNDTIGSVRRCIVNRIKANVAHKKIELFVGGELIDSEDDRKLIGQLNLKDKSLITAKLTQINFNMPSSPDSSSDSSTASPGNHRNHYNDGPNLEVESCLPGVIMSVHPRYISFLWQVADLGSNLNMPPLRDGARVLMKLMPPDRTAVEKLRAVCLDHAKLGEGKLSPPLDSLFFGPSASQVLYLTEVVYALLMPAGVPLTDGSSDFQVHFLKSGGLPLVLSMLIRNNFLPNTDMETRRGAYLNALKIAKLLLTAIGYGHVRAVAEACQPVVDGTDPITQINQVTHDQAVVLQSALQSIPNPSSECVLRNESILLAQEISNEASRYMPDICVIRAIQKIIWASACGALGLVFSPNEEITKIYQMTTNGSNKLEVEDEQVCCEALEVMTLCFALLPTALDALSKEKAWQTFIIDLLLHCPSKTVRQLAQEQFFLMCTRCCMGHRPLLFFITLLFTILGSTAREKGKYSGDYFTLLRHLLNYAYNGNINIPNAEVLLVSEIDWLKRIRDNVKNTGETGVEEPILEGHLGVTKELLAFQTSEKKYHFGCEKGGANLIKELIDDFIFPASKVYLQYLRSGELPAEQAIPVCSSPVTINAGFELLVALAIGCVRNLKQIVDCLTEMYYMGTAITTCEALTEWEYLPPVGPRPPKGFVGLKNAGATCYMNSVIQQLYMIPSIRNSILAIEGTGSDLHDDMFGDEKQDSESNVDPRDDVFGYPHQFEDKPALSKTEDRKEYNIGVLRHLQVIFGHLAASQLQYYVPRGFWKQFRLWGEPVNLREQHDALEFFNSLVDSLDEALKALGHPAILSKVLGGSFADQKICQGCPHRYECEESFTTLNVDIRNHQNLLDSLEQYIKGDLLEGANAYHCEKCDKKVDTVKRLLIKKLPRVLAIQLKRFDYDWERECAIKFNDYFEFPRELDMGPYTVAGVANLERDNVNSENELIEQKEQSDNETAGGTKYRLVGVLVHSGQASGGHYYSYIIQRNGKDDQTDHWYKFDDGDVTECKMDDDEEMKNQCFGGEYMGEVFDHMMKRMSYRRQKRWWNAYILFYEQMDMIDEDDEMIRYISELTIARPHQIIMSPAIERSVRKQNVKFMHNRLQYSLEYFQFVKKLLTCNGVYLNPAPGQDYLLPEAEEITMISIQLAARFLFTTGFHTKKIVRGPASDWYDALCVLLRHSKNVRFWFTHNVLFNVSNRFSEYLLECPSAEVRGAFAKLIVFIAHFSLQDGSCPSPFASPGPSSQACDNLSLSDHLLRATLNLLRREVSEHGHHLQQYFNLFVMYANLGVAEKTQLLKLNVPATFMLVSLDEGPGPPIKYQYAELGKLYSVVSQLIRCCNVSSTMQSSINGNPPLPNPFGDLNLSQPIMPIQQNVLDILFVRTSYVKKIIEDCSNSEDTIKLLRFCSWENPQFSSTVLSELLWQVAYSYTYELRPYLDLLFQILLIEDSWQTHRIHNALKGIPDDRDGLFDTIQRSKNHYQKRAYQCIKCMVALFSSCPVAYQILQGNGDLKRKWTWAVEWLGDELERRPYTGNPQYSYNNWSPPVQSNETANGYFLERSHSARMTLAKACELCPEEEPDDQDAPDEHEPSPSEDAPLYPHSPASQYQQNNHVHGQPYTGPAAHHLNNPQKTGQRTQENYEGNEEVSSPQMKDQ

B1: ID2 (co-transfected / co-expressed in 293T cells) (other)
chain: MKAFSPVRSVRKNSLSDHSLGISRSKTPVDDPMSLLYNMNDCYSKLKELVPSIPQNKKVSKMEILQHVIDYILDLQIALDSHPTIVSLHHQRPGQNQASRTPLTTLNTDISILSLQASEFPSELMSNDSKALCG
notes: ID2 was amplified from Jurkat-derived cDNA; The methods describe only a C-terminal Flag version in pRK2001
no binding: all assays above
